Values joined by “and” are separate entries in the source; they are usually repeats but may differ in a detail not shown here. Identical values can stand only once. Like-named read-outs stand apart in the source and are kept apart here. One block for each substance: values may come before it.
What was measured:
[1] = biological target: UHRF1 PHD finger PHD (Mus musculus) (UniProt Q8VDF2); details: cited from earlier work
[2] = biological target: UHRF1 PHD finger PHD (Homo sapiens) (UniProt Q96T88); details: cited from earlier work
Sequence of UHRF1 PHD finger PHD (Homo sapiens) (Q96T88 307-369): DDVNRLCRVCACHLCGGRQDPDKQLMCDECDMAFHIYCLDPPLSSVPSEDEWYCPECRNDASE

[3] = biological target: UHRF1 PHD finger PHD (Mus musculus) (UniProt Q8VDF2); details: cited from earlier work; remark: listed apart in the source
[4] = biological target: UHRF1 PHD finger PHD (Homo sapiens) (UniProt Q96T88); details: cited from earlier work; remark: listed apart in the source
[5] = biological target: human UHRF1 PHD finger, residues 299-366, D334A/D337A (human) (UniProt Q96T88); assay: ITC; Microcal PEAQ-ITC, 293 K, 10 mM HEPES pH 7.5, 150 mM NaCl, 0.25 mM TCEP, one-site model; which partner was titrated is not stated; single titrations and their means
Sequence of human UHRF1 PHD finger, residues 299-366, D334A/D337A (human) (Q96T88 299-366 D334A/D337A): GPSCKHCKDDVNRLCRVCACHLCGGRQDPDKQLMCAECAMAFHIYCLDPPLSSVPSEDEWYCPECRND

hPHD D334A/D337A (human) = hPHD D334A/D337A (human) (UniProt Q96T88); assay: ITC; Microcal PEAQ-ITC, 293 K, 10 mM HEPES pH 7.5, 150 mM NaCl, 0.25 mM TCEP; one-site model; at least three independent titrations
Sequence of hPHD D334A/D337A (human) (Q96T88 299-366 D334A/D337A): as above

Sequence of UHRF1 PHD finger PHD (Mus musculus) (Q8VDF2 301-374): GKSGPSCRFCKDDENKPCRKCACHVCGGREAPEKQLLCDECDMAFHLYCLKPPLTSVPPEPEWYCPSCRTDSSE
Sequence of PAF15 1-10 (Q15004 whole entry, looked up, tested part not stated): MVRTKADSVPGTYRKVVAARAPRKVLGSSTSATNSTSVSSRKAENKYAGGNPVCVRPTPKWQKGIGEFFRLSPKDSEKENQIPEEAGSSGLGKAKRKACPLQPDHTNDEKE
Sequence of PAF15 (Q15004 whole entry): as the sequence (Q15004 whole entry, looked up, tested part not stated) above
Sequence of DPPA3 (Q8QZY3 whole entry): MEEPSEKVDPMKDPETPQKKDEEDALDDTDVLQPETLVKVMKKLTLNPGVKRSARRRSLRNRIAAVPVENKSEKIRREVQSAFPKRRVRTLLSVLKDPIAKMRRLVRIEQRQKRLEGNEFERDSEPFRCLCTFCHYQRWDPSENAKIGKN

Substance: DPPA3 (from UniProt Q8QZY3)
Kd [1]: 0.0277 µM

Substance: PAF15 1-10 (from UniProt Q15004)
Kd [2]: 2.2 µM

Substance: PAF15 (from UniProt Q15004)
Kd [3]: 3.52 µM

Substance: histone H3 1-15 (from UniProt P68431)
Kd [4]: 1.7 µM

Kd [5]: 114 µM and 91 µM and 139 µM
Substance: human DPPA3, residues 81-118 (domain or fragment)

Kd (hPHD D334A/D337A (human)): > 115 µM
Substance: human DPPA3, residues 81–118 (recombinant) (domain or fragment)

Reference: publication PMC11187062
